For two molecules, Kd results are on record in paper PMC5738438 (2017).

For orientation: Kd means the free concentration of one partner at which half of the binding sites on the other are occupied at equilibrium, for simple one-to-one binding.

In one experiment the target is H2A/H2B dimer (Xenopus, UniProt P06897 2-123; P02281 1-126).
In the next experiment the target is H3/H4 (Xenopus, UniProt P84233 21-136; P62799 17-103).

B1: Npm tail peptide (residues 122–131) (peptide)
chain: DYSWAEEEDE
In the experiment with H2A/H2B dimer, B1 showed a Kd of 9360 nM.

B2: Npm tail domain (residues 119–195) (domain or fragment)
chain: MEEDYSWAEEEDEGEEEEEEEEDPESPPKAVKRPAATKKAGQAKKKKLDKEDESSEEDSPTKKGKGAGRGRKPAAKK
For the molecule B2, the Kd worked out at 171 nM with H2A/H2B dimer and 1110 nM in the experiment with H3/H4.
